Test results reported in paper PMC2866327, “Designed Inhibitors of Insulin-Degrading Enzyme Regulate the Catabolism and Activity of Insulin” (PLoS ONE, 2010).
Square brackets hold non-standard residues; d marks the D form. Ends that are not written are not given here. 2Nal = N[C@@H](Cc1ccc2ccccc2c1)C(=O)O; d2Nal = N[C@H](Cc1ccc2ccccc2c1)C(=O)O

Molecular target: T1, insulin-degrading enzyme (recombinant human IDE) (human, UniProt P14735 1-1019)
T1 construct: insulin-degrading enzyme, human, recombinant; source: recombinant, purified from bacteria [33]
Assay: enzyme inhibition assay (Ki); recombinant human IDE (nominal 1 nM); dose-response of the hydrolysis of IDE substrates (FRET1, SP1, FAβB, 125I-insulin, or insulin by HTRF); the substrate used for the Ki values in the text is not stated
Conditions: both partners purified

Binder | fold gain in potency (relative Ki) against Phe at P1' [fold] | Ki [nM]
[d2Nal]-[dR]-[dY] (also: retro-inverso backbone, hydroxamic acid next to P1', P1' said to be a β-amino acid) [retro-inverso peptide hydroxamate Xaa-Arg-Tyr with 2-naphthylalanine (2-Nap) at P1'] | ~100 | 
[2Nal]RWE (also: N-terminal hydroxamic acid moiety, structure not given here) [Ii1 (IDE inhibitor 1), conventional peptide hydroxamate incorporating 2-Nap at the P1' position] |  | ~1.7
